Measurements taken from patent EP3492597A2.

Biological target: human hepatocyte growth factor receptor (hHGFR) (human) (UniProt P08581)
Test: cell-based or functional assay

Chain of UniProt P08581 (P08581 25-1390): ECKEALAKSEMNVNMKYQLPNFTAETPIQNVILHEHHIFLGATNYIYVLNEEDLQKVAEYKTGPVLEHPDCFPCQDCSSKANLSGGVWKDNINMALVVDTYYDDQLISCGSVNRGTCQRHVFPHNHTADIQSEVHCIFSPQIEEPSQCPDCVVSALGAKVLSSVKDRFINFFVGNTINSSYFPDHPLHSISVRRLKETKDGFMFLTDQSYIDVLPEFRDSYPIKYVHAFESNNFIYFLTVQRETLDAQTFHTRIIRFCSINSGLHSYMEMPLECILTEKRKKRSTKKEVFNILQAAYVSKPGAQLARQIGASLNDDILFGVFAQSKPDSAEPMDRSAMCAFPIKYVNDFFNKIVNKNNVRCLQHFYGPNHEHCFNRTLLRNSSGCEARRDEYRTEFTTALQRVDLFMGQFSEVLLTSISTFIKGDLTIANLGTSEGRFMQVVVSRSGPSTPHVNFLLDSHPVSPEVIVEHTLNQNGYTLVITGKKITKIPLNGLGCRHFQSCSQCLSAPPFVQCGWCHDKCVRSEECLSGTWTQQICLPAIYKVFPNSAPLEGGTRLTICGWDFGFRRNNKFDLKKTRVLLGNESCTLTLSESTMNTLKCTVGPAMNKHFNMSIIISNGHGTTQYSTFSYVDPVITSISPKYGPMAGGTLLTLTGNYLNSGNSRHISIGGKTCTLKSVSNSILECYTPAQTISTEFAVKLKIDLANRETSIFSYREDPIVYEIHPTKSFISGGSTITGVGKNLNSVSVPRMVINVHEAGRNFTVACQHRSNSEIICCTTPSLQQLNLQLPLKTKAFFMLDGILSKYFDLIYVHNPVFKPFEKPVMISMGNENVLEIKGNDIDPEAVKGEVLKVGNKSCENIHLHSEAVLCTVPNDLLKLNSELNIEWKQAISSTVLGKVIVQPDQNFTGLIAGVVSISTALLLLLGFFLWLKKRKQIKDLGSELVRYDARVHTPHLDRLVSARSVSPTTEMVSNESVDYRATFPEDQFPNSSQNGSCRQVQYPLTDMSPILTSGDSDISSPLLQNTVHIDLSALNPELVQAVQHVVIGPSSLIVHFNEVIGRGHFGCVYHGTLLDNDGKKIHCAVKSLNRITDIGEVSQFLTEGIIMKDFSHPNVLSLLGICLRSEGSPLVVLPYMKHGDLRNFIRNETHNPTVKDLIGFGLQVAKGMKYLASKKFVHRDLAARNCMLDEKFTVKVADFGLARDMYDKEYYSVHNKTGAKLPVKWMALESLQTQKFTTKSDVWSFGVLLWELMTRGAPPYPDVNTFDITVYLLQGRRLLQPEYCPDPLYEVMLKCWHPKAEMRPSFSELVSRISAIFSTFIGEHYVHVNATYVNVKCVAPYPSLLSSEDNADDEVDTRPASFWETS

Row | Substance | transduction of T47D+hHGFR cells against parental T47D cells [fold] | transduction efficiency (EGFP expression, 72 hr) in T47D+hHGFR cells against T47D cells [fold]
1 | S663V+T492V mutant AAV3 capsid (rAAV3-S663V+T492V vector) | > 5 | –
2 | Y705+731F double-mutant AAV3 capsid (Y705+731F scAAV3-CBAp-EGFP vector) | > 5 | –
3 | wild-type AAV3 capsid (scAAV3-CBAp-EGFP vector) | > 5 | 8 to 13
